From PMC10164062 (Cancer discovery, 2023)

Molecular target: the molecule itself
Assay: cross-linking

B1: p53R245W (mouse, DNA binding domain mutant) (natural protein, mouse (endogenous in MEFs), UniProt P02340 1-390, looked up)
chain: MTAMEESQSDISLELPLSQETFSGLWKLLPPEDILPSPHCMDDLLLPQDVEEFFEGPSEALRVSGAPAAQDPVTETPGPVAPAPATPWPLSSFVPSQKTYQGNYGFHLGFLQSGTAKSVMCTYSPPLNKLFCQLAKTCPVQLWVSATPPAGSRVRAMAIYKKSQHMTEVVRRCPHHERCSDGDGLAPPQHLIRVEGNLYPEYLEDRQTFRHSVVVPYEPPEAGSEYTTIHYKYMCNSSCMGGMNWRPILTIITLEDSSGNLLGRDSFEVRVCACPGRDRRTEEENFRKKEVLCPELPPGSAKRALPTCTSASPPQKKKPLDGEYFTLKIRGRKRFEMFRELNEALELKDAHATEESGDSRAHSSYLKTKKGQSTSRHKKTMVKKVGPDSD
stoichiometry N: 4
